Measurements published in US20050282743A1, “Molecular interactions in cells” (Arbor Vita Corporation, priority 2001, published 2005).
pKd: −log10 of the molar value. One block for each compound: values may come before it. Ends that are not written are not given here. Peptide text beside a SMILES is read from it. * marks the point of attachment. Biotin = O=C1N[C@H]2[C@H](CS[C@H]2CCCCC(=O)*)N1

Tests used:
Assay type in all cases: binding
[1] = target: T1, PDZ protein (GST-PDZ fusion) (Homo sapiens, UniProt P55196); assay: G' assay (10 uM PL peptide), results of TABLE 7 and TABLE 12; details: PDZ AF6, PDZ Domain 1
T1 construct: made in house; host or cells: E. coli (DH5alpha, BL21 or JM109)
Method in brief: (§1)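 Biotin-PL peptide (N-term label), 10 uM vs GST-PDZ; protein 5 ug/ml by default. A450 nm binned: 1 = 0-1, 2 = 1-2, 3 = 2-3, 4 = 3-4, 5 = >4 on >2 repeats, 0 = no binding.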

[2] = target: T2, PDZ protein (GST-PDZ fusion) (Homo sapiens, UniProt Q02410); assay: as above; details: PDZ Mint 1, PDZ Domain 1, 2
T2 construct: made in house; host or cells: E. coli (DH5alpha, BL21 or JM109)
T2 sequence (Q02410 1-837): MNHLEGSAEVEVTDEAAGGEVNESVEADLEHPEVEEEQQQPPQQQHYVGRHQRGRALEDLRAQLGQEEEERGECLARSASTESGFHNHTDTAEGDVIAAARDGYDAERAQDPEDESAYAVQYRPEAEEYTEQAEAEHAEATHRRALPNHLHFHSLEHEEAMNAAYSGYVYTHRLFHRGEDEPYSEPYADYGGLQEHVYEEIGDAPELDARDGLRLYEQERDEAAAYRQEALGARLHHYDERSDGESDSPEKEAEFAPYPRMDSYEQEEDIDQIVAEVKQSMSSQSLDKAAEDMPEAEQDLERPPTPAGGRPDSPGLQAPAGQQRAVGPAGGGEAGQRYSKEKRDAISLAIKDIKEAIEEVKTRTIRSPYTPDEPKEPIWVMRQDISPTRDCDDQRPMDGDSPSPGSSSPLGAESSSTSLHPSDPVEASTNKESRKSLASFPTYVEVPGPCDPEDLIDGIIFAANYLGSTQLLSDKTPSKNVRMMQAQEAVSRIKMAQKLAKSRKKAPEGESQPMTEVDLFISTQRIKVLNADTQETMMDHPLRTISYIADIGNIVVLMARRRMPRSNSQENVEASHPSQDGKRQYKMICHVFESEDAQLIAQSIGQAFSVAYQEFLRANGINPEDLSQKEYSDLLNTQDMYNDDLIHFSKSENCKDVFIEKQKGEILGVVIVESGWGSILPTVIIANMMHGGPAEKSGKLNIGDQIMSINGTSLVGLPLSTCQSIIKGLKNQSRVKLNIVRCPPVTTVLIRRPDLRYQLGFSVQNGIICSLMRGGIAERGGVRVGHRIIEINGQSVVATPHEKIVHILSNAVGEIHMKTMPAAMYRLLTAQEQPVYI
Method in brief: as §1

[3] = target: T3, PDZ protein (GST-PDZ fusion) (Homo sapiens, UniProt Q5TCQ9); assay: as above
T3 construct: made in house; host or cells: E. coli (DH5alpha, BL21 or JM109)
T3 sequence (Q5TCQ9 1-1481): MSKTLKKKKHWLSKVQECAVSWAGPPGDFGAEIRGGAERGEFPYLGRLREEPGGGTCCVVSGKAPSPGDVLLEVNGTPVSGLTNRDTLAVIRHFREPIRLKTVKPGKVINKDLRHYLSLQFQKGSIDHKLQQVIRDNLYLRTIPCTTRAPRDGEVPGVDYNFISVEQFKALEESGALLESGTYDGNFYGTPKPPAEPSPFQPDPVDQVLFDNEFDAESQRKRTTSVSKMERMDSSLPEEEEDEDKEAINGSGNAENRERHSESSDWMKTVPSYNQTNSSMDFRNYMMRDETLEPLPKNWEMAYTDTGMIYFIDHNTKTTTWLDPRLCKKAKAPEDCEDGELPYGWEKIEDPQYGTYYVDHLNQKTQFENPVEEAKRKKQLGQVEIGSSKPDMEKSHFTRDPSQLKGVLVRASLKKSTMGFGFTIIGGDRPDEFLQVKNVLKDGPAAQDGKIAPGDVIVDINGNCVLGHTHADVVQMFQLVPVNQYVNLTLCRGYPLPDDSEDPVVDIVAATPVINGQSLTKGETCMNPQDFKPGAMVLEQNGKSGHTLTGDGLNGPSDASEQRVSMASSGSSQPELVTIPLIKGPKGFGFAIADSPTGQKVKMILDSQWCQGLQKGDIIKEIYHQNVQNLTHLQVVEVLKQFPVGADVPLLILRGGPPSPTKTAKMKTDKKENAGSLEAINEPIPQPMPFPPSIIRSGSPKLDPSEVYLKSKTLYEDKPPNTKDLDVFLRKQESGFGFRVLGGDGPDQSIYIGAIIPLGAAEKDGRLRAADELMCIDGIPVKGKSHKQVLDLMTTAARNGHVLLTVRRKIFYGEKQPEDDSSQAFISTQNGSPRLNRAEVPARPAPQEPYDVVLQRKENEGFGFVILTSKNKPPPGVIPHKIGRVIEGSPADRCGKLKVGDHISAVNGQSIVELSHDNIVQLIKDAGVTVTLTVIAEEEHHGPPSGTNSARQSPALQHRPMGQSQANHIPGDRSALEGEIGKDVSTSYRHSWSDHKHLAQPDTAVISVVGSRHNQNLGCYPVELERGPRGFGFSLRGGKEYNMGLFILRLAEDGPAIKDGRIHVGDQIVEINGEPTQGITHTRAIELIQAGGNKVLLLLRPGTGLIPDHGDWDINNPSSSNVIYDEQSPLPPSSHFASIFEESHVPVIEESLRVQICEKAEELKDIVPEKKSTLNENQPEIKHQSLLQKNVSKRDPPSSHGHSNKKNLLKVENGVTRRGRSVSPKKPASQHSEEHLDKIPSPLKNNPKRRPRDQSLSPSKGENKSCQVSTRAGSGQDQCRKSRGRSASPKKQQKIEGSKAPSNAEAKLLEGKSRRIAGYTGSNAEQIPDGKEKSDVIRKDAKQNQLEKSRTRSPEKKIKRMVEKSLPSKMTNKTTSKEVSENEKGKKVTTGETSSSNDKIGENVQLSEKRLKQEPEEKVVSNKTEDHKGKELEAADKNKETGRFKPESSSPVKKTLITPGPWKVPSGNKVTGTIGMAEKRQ
Method in brief: as §1

[4] = target: T4, PDZ protein (GST-PDZ fusion) (Homo sapiens, UniProt Q12923); assay: as above
T4 construct: made in house; host or cells: E. coli (DH5alpha, BL21 or JM109)
Method in brief: as §1

[5] = target: T5, PDZ protein (GST-PDZ fusion) (Homo sapiens, UniProt Q8NI35); assay: as above; details: PDZ INADL, PDZ Domain 3
T5 construct: made in house; host or cells: E. coli (DH5alpha, BL21 or JM109)
Method in brief: as §1

[6] = target: T6, PDZ-domain polypeptide (GST/PDZ fusion protein) (Homo sapiens, UniProt Q12923); assay: Apparent affinity (Kd) by titration of PL peptide in the G assay; details: PDZ PTPL-1, PDZ Domain 2; read-out: Peptide Optimal Conc (non-zero value: Kd by titration of the PL peptide)
T6 construct: made in house; host or cells: E. coli (DH5alpha, BL21 or JM109)
Experimental: (§2) The third column labeled “Peptide Optimal Concentration” in the tables is a number reflective of the binding interaction between the PL protein and PDZ protein. […] The column labeled “Protein Optimal Concentration” refers to the protein concentration used to assay PL interaction (in ug/ml); a ‘0’ is indicative of 5 ug/ml protein concentration; any other value represents the concentration (in ug/ml) used to determine the dissociation constant for a given interaction.
(§3) The “A” and “G” assays described supra can be used to determine the “apparent affinity” of binding of a PDZ ligand peptide to a PDZ-domain polypeptide. Apparent affinity is determined based on the concentration of one molecule required to saturate the binding of a second molecule (e.g., the binding of a ligand to a receptor). Two particularly useful approaches for quantitation of apparent affinity of PDZ-ligand binding are provided infra.
(§4) In cases where satisfying the above criteria proves difficult, an alternative approach (infra) can be used.
(§5) (1) A fixed concentration of a PDZ-domain polypeptide and increasing concentrations of a labeled PL peptide (labeled with, for example, biotin or fluorescein, see TABLE 9 for representative peptide amino acid sequences) are mixed together in solution and allowed to react. In certain assays, peptide concentrations are 0.1 uM, 1 uM, 10 uM, 100 uM, 1 mM. In other assays, appropriate reaction times can range from 10 minutes to 2 days at temperatures ranging from 4° C. to 37° C. In some instances, the identical reaction can also be carried out using a non-PDZ domain-containing protein as a control (e.g., if the PDZ-domain polypeptide is fusion protein, the fusion partner can be used).
(§6) (2) PDZ-ligand complexes can be separated from unbound labeled peptide using a variety of methods known in the art.
(§7) (3) The PDZ-ligand complex is detected based on presence of the label on the peptide ligand using a variety of methods and detectors known to one of skill in the art. For example, if the label is fluorescein and the separation is achieved using HPSEC, an in-line fluorescence detector can be used. The binding can also be detected as described supra for the G assay.

[7] = target: T7, PDZ-domain polypeptide (GST/PDZ fusion protein) (Homo sapiens, UniProt Q5TCQ9); assay: as above; details: PDZ KIAA1634, PDZ Domain 2; read-out: Peptide Optimal Conc (non-zero value: Kd by titration of the PL peptide)
T7 construct: made in house; host or cells: E. coli (DH5alpha, BL21 or JM109)
T7 sequence (Q5TCQ9 1-1481): T3 sequence (Q5TCQ9 1-1481)
Experimental: as §2, §3, §4, §5, §6, §7

[8] = target: T8, PDZ protein (GST-PDZ fusion) (Homo sapiens, UniProt O14908); assay: G' assay (10 uM PL peptide), results of TABLE 7 and TABLE 12; details: PDZ TAX IP2, PDZ Domain 1
T8 construct: made in house; host or cells: E. coli (DH5alpha, BL21 or JM109)
T8 sequence (O14908 1-333): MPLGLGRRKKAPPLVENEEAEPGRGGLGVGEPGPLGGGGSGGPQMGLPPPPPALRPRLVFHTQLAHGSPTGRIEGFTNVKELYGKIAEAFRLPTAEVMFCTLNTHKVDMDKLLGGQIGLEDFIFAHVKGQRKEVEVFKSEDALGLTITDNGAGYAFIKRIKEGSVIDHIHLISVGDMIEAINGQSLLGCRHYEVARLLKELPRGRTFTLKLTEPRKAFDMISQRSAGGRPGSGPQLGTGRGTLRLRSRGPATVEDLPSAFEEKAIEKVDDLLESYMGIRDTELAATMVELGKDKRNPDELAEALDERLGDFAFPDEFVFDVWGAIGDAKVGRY
Method in brief: as §1

[9] = target: T9, PDZ protein (GST-PDZ fusion) (Homo sapiens, UniProt Q6P0Q8); assay: as above
T9 construct: made in house; host or cells: E. coli (DH5alpha, BL21 or JM109)
Method in brief: as §1

[10] = target: PDZ-domain polypeptide (GST/PDZ fusion protein); assay: Apparent affinity (Kd) by titration of PL peptide in the G assay; details: PDZ TAX IP2, PDZ Domain 1; read-out: Peptide Optimal Conc (Kd by titration of the PL peptide)
Experimental: as §2, §3, §4, §5, §6, §7

T1 sequence (P55196 whole entry, the tested form may be a part): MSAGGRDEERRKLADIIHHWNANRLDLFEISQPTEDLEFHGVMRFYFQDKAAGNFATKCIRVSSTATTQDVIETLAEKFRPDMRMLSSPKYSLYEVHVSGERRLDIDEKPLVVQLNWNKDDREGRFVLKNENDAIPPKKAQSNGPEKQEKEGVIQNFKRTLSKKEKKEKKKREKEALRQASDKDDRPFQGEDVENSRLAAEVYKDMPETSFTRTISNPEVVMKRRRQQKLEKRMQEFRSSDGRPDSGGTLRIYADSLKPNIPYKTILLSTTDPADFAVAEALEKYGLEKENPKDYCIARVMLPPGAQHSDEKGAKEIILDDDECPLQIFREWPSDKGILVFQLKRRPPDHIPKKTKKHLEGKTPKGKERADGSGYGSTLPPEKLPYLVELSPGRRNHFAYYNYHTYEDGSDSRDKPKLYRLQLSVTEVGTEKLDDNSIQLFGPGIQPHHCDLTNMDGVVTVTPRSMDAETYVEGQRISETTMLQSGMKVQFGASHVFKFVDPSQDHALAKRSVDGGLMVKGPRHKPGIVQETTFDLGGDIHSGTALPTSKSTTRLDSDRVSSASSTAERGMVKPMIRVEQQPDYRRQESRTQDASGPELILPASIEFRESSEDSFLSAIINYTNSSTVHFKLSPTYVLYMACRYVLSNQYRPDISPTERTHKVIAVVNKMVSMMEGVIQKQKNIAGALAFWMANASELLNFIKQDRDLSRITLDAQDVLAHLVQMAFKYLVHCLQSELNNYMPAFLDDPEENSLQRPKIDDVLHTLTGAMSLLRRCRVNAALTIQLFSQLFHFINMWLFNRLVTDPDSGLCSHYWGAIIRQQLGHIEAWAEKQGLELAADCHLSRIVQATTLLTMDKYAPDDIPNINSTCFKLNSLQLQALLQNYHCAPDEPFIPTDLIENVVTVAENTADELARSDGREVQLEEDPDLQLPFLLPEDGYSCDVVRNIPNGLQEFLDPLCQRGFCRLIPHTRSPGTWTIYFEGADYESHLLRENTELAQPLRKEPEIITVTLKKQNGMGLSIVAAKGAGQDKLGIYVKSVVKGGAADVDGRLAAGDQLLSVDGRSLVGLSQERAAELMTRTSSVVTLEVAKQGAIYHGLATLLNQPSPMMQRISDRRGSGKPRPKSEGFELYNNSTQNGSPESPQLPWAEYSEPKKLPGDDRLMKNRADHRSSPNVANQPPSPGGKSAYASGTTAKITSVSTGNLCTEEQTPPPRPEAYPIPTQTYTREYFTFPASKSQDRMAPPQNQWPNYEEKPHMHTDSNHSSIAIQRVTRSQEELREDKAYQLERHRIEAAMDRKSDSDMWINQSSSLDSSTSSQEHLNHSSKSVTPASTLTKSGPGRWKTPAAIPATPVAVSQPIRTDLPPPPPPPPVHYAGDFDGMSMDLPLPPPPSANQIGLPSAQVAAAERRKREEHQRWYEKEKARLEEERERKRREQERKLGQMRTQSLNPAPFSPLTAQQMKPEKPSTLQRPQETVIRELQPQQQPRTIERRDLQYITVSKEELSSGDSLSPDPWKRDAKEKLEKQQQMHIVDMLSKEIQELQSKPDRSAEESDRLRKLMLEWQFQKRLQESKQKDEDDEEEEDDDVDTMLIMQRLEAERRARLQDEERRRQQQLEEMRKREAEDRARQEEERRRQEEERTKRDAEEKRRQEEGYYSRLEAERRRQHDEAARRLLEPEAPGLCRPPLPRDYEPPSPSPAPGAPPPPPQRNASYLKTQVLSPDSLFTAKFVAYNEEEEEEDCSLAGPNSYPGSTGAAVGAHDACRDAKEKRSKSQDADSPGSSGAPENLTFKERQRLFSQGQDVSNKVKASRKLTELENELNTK
T4 sequence (Q12923 whole entry, the tested form may be a part): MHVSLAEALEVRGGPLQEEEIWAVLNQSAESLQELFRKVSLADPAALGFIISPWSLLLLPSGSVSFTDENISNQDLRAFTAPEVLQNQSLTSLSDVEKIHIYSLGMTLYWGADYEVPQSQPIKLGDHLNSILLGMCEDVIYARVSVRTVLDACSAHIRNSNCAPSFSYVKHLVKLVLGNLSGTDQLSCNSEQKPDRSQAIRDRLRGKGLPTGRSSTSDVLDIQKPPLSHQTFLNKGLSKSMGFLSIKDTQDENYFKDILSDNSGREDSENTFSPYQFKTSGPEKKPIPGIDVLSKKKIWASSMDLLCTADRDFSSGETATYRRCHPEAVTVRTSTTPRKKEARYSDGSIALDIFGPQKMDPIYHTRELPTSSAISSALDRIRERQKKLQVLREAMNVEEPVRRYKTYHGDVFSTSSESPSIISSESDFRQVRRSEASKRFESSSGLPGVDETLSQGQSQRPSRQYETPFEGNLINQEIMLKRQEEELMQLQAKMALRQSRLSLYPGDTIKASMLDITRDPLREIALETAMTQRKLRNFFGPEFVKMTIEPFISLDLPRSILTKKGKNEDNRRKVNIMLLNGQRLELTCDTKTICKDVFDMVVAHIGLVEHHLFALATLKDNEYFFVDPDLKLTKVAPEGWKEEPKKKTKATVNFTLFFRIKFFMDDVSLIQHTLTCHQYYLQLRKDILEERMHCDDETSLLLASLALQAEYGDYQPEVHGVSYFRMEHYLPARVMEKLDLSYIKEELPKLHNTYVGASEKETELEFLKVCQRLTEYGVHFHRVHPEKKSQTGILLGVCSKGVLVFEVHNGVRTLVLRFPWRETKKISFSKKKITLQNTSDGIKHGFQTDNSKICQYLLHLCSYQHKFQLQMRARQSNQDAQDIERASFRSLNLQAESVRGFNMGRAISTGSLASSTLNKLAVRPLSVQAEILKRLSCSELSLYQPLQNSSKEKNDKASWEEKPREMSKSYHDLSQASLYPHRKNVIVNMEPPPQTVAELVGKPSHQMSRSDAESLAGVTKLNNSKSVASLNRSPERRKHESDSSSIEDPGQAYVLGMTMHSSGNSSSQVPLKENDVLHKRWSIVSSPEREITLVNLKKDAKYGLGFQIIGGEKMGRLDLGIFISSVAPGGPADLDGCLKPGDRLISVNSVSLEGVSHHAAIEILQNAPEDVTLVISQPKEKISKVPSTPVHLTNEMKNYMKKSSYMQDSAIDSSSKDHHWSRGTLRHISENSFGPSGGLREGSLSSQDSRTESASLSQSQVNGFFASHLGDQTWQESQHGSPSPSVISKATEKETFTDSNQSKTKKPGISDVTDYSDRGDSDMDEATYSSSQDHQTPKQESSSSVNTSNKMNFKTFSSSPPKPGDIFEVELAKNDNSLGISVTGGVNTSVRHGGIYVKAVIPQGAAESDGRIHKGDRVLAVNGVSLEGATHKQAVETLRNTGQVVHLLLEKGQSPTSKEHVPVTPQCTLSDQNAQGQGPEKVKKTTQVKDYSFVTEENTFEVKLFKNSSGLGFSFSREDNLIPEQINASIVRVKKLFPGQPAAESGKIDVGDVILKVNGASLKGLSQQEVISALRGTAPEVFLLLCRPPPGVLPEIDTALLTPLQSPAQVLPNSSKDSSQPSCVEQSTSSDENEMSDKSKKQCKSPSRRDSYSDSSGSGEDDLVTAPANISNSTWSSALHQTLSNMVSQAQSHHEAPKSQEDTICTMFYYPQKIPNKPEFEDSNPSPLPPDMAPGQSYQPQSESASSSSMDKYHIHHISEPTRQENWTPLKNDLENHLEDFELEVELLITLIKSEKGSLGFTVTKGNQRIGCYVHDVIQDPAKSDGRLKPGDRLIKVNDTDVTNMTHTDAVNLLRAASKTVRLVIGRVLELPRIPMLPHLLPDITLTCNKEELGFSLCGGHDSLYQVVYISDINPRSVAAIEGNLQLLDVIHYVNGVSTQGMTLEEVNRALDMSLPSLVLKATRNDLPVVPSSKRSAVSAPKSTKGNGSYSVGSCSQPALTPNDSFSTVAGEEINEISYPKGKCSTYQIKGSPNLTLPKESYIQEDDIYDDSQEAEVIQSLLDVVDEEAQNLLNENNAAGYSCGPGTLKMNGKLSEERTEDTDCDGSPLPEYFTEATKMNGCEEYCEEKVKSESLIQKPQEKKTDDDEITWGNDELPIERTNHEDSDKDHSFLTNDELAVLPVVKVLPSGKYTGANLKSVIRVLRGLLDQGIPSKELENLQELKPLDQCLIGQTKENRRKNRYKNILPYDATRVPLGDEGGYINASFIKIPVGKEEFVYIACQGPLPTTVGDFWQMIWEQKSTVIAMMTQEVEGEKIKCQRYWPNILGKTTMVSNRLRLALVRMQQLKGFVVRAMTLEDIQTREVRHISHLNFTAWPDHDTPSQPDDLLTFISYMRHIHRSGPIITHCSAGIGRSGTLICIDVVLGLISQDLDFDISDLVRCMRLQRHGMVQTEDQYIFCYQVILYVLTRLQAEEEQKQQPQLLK
T6 sequence (Q12923 whole entry, the tested form may be a part): as above

Classification [1]: 2 (A450 nm 1-2) | Classification [2]: 2 (A450 nm 1-2) | Classification ([3]; PDZ KIAA1634, PDZ Domain 1): 1 (A450 nm 0-1)
Compound: SSPDSSYQGKGFVMSRAMYV (Biotin-SSPDSSYQGKGFVMSRAMYV) [Nectin 2]

Classification [1]: 1 (A450 nm 0-1) | Classification ([4]; PDZ PTPL-1, PDZ Domain 4): 1 (A450 nm 0-1) | Classification [5]: 1 (A450 nm 0-1)
Compound: YSQPSARSEGEFKQTSSFLV (Biotin-YSQPSARSEGEFKQTSSFLV) [JAM (junctional adhesion molecule)]

Classification ([4]; PDZ PTPL-1, PDZ Domain 2): 3 (A450 nm 2-3) | Classification ([3]; PDZ KIAA1634, PDZ Domain 2): 2 (A450 nm 1-2) | pKd [6]: 5.30 | pKd [7]: 5.30
Compound: CC[C@H](C)[C@H](NC(=O)CCCC[C@@H]1SC[C@@H]2NC(=O)N[C@@H]21)C(=O)N[C@H](C(=O)N[C@H](C(=O)N[C@H](C(=O)N[C@H](C(=O)N[C@H](C(=O)N[C@@H](CCSC)C(=O)N[C@H](C(=O)N[C@H](C(=O)N[C@@H](CC(N)=O)C(=O)N[C@H](C(=O)N[C@@H](CC(=O)O)C(=O)N[C@@H](Cc1ccccc1)C(=O)N1CCC[C@H]1C(=O)N1CCC[C@H]1C(=O)N[C@@H](CCCCN)C(=O)N[C@@H](CCC(=O)O)C(=O)N[C@@H](CO)C(=O)N[C@@H](CO)C(=O)N[C@@H](CC(C)C)C(=O)O)C(C)C)[C@@H](C)O)C(C)C)[C@@H](C)O)C(C)C)C(C)C)[C@@H](C)O)C(C)C [ActRIIA] (Biotin-IVTVVTMVTNVDFPPKESSL-OH; C-terminus assumed)

Classification [8]: 4 (A450 nm 3-4) | Classification ([9]; PDZ KIAA0807(S), PDZ Domain 1): 1 (A450 nm 0-1) | Classification ([9]; PDZ KIAA807, PDZ Domain not given): 1 (A450 nm 0-1) | pKd [10]: 5.60
Compound: AKT-1 (Biotin-VDSERRPHFPQFSYSASSTA)
